The supplement of paper PMC11246515
± gives the standard deviation of the averaged measurements.

Experiment: total protein half-life in vivo (active degradation + dilution); higher = more stable protein
[1] = E. coli NCM3722 delta-clpP delta-lon delta-hslV, growth: N-lim chemostat, doubling time 6 h
[2] = E. coli NCM3722 delta-clpP, growth: N-lim chemostat, doubling time 6 h
[3] = E. coli NCM3722 delta-hslV, growth: N-lim chemostat, doubling time 6 h
[4] = E. coli NCM3722 delta-lon, growth: N-lim chemostat, doubling time 6 h
[5] = E. coli NCM3722 delta-smpB, growth: N-lim chemostat, doubling time 6 h
[6] = wild type E. coli NCM3722, growth: C-lim chemostat, doubling time 3 h
[7] = wild type E. coli NCM3722, growth: C-lim chemostat, doubling time 6 h
[8] = wild type E. coli NCM3722, growth: C-lim chemostat, doubling time 12 h
[9] = wild type E. coli NCM3722, growth: N-lim chemostat, doubling time 6 h
[10] = wild type E. coli NCM3722, growth: N-lim chemostat, doubling time 12 h
[11] = wild type E. coli NCM3722, growth: P-lim chemostat, doubling time 6 h
[12] = wild type E. coli NCM3722, growth: P-lim chemostat, doubling time 12 h

Sequence | total protein half-life in vivo [1] [h] | total protein half-life in vivo [2] [h] | total protein half-life in vivo [3] [h] | total protein half-life in vivo [4] [h] | total protein half-life in vivo [5] [h] | total protein half-life in vivo [6] [h] | total protein half-life in vivo [7] [h] | total protein half-life in vivo [8] [h] | total protein half-life in vivo [9] [h] | total protein half-life in vivo [10] [h] | total protein half-life in vivo [11] [h] | total protein half-life in vivo [12] [h]
MFSIQQPLLVFSDLDGTLLDSHSYDWQPAAPWLTRLREANVPVILCSSKTSAEMLYLQKTLGLQGLPLIAENGAVIQLAEQWQEIDGFPRIISGISHGEISLVLNTLREKEHFKFTTFDDVDDATIAEWTGLSRSQAALTQLHEASVTLIWRDSDERMAQFTARLNELGLQFMQGARFWHVLDASAGKDQAANWIIATYQQLSGKRPTTLGLGDGPNDAPLLEVMDYAVIVKGLNREGVHLHDEDPARVWRTQREGPEGWREGLDHFFSAR | 4.98 ± 0.28 | 4.08 ± 0.42 | 4.17 ± 0.055 | 4.3 ± 0.26 | 3.73 ± 0.22 | 2.87 ± 0.076 | 5.25 ± 0.12 | 8.64 ± 0.059 | 4.167 ± 0.036 | 6.751 ± 0.019 | 5.43 ± 0.42 | 10.5 ± 0.14
MFTFIKKVIKTGTATSSYPLEPIAVDKNFRGKPEQNPQQCIGCAACVNACPSNALTVETDLATGELAWEFNLGHCIFCGRCEEVCPTAAIKLSQEYELAVWKKEDFLQQSRFALCNCRVCNRPFAVQKEIDYAIALLKHNGDSRAENHRESFETCPECKRQKCLVPSDRIELTRHMKEAI | 2.95 |  |  |  |  |  |  |  |  |  |  | 
MFTKRHRITLLFNANKAYDRQVVEGVGEYLQASQSEWDIFIEEDFRARIDKIKDWLGDGVIADFDDKQIEQALADVDVPIVGVGGSYHLAESYPPVHYIATDNYALVESAFLHLKEKGVNRFAFYGLPESSGKRWATEREYAFRQLVAEEKYRGVVYQGLETAPENWQHAQNRLADWLQTLPPQTGIIAVTDARARHILQVCEHLHIPVPEKLCVIGIDNEELTRYLSRVALSSVAQGARQMGYQAAKLLHRLLDKEEMPLQRILVPPVRVIERRSTDYRSLTDPAVIQAMHYIRNHACKGIKVDQVLDAVGISRSNLEKRFKEEVGETIHAMIHAEKLEKARSLLISTTLSINEISQMCGYPSLQYFYSVFKKAYDTTPKEYRDVNSEVML [P0ACI3] | 5.66 ± 0.54 | 5.86 ± 0.86 |  | 3.81 ± 0.22 | 3.05 ± 0.42 | 2.89 ± 0.14 | 5.27 ± 0.069 | 9.26 ± 0.14 | 3.78 ± 0.56 | 4.44 ± 1.1 | 5.4 ± 0.33 | 9.78 ± 0.94
MFTRVANFCRKVLSREESEAEQAVARPQVTVIPREQHAISRKDISENALKVMYRLNKAGYEAWLVGGGVRDLLLGKKPKDFDVTTNATPEQVRKLFRNCRLVGRRFRLAHVMFGPEIIEVATFRGHHEGNVSDRTTSQRGQNGMLLRDNIFGSIEEDAQRRDFTINSLYYSVADFTVRDYVGGMKDLKDGVIRLIGNPETRYREDPVRMLRAVRFAAKLGMRISPETAEPIPRLATLLNDIPPARLFEESLKLLQAGYGYETYKLLCEYHLFQPLFPTITRYFTENGDSPMERIIEQVLKNTDTRIHNDMRVNPAFLFAAMFWYPLLETAQKIAQESGLTYHDAFALAMNDVLDEACRSLAIPKRLTTLTRDIWQLQLRMSRRQGKRAWKLLEHPKFRAAYDLLALRAEVERNAELQRLVKWWGEFQVSAPPDQKGMLNELDEEPSPRRRTRRPRKRAPRREGTA [P0ABF1] | 6.05 ± 0.76 | 5.89 ± 0.71 | 3.67 ± 0.17 | 3.728 ± 0.025 | 3.45 ± 0.18 | 2.324 ± 0.019 | 4.37 ± 0.12 | 6.58 ± 0.41 | 3.84 ± 0.079 | 6.19 ± 0.3 | 3.92 ± 0.57 | 7.24 ± 0.26
MFVKLLRSVAIGLIVGAILLVAMPSLRSLNPLSTPQFDSTDETPASYNLAVRRAAPAVVNVYNRGLNTNSHNQLEIRTLGSGVIMDQRGYIITNKHVINDADQIIVALQDGRVFEALLVGSDSLTDLAVLKINATGGLPTIPINARRVPHIGDVVLAIGNPYNLGQTITQGIISATGRIGLNPTGRQNFLQTDASINHGNSGGALVNSLGELMGINTLSFDKSNDGETPEGIGFAIPFQLATKIMDKLIRDGRVIRGYIGIGGREIAPLHAQGGGIDQLQGIVVNEVSPDGPAANAGIQVNDLIISVDNKPAISALETMDQVAEIRPGSVIPVVVMRDDKQLTLQVTIQEYPATN [P0AEE3] | 7.33 ± 0.89 |  | 5.79 ± 0.39 | 5.86 ± 0.29 | 6.21 ± 0.68 | 3.25 ± 0.23 | 5.91 ± 0.28 | 11.3 ± 1.2 | 5.98 ± 0.72 | 13.8 ± 2.3 | 7.16 ± 0.27 | 12.1 ± 0.81
MGGISIWQLLIIAVIVVLLFGTKKLGSIGSDLGASIKGFKKAMSDDEPKQDKTSQDADFTAKTIADKQADTNQEQAKTEDAKRHDKEQV | 4.809 ± 0.026 | 4.72 ± 0.96 | 4.51 ± 0.3 | 4.05 ± 0.54 | 4.55 ± 0.22 | 2.93 ± 0.082 | 5.337 ± 0.019 | 9.34 ± 0.37 | 4.72 ± 0.21 | 9.53 ± 2.4 | 4.41 ± 0.37 | 8.96 ± 0.53
MGKALVIVESPAKAKTINKYLGSDYVVKSSVGHIRDLPTSGSAAKKSADSTSTKTAKKPKKDERGALVNRMGVDPWHNWEAHYEVLPGKEKVVSELKQLAEKADHIYLATDLDREGEAIAWHLREVIGGDDARYSRVVFNEITKNAIRQAFNKPGELNIDRVNAQQARRFMDRVVGYMVSPLLWKKIARGLSAGRVQSVAVRLVVEREREIKAFVPEEFWEVDASTTTPSGEALALQVTHQNDKPFRPVNKEQTQAAVSLLEKARYSVLEREDKPTTSKPGAPFITSTLQQAASTRLGFGVKKTMMMAQRLYEAGYITYMRTDSTNLSQDAVNMVRGYISDNFGKKYLPESPNQYASKENSQEAHEAIRPSDVNVMAESLKDMEADAQKLYQLIWRQFVACQMTPAKYDSTTLTVGAGDFRLKARGRILRFDGWTKVMPALRKGDEDRILPAVNKGDALTLVELTPAQHFTKPPARFSEASLVKELEKRGIGRPSTYASIISTIQDRGYVRVENRRFYAEKMGEIVTDRLEENFRELMNYDFTAQMENSLDQVANHEAEWKAVLDHFFSDFTQQLDKAEKDPEEGGMRPNQMVLTSIDCPTCGRKMGIRTASTGVFLGCSGYALPPKERCKTTINLVPENEVLNVLEGEDAETNALRAKRRCPKCGTAMDSYLIDPKRKLHVCGNNPTCDGYEIEEGEFRIKGYDGPIVECEKCGSEMHLKMGRFGKYMACTNEECKNTRKILRNGEVAPPKEDPVPLPELPCEKSDAYFVLRDGAAGVFLAANTFPKSRETRAPLVEELYRFRDRLPEKLRYLADAPQQDPEGNKTMVRFSRKTKQQYVSSEKDGKATGWSAFYVDGKWVEGKK | 6.56 ± 0.22 | 6.56 ± 0.69 | 5.9165 ± 0.0035 | 6.34 ± 0.074 | 5.43 ± 0.18 | 2.57 ± 0.091 | 5.9591 ± 0.0017 | 10.5 ± 0.44 | 5.88 ± 0.34 | 12.4 ± 0.35 | 5.24 ± 0.54 | 11.5 ± 0.38
